According to the supplement of paper PMC12042874:
± gives the uncertainty stated by the source.

Experiment: amyloid nucleation score (Sup35N fusion, yeast selection) (log enrichment); library NNK1; higher = more nucleation; inactive = no reads after selection
Procedure, shortened: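 The nucleation score is the DiMSum log enrichment of output over input reads, centred on the mode score of non-aggregating sequences. Only sequences with 100 or more input reads were scored, using Illumina sequencing of input and output plasmid inserts. Psi-negative yeast expressing Sup35N fused to peptides of 20 random codons were induced 24 hours with 100 μM copper sulfate and grown 7 days at 30°C on medium lacking adenine and uracil.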

Substance	amyloid nucleation score
RFRVVNSCSTKPLLNEKLFG	inactive
RFSMFRQFRSDLGCFPIMVP	0.254 ± 0.72
RFYIMYLSGCAKTSFCGFVS	6.4 ± 0.079
RGCMAQDSNLYKHVSARTGD	-0.179 ± 1.6
RGDLCGSRIFLWFALPVN	-0.726 ± 0.62
RGGTMGYILDNKCQNFVGTW	inactive
RGHAFLFVLYTFQLKAYAS	-0.033 ± 0.3
RGILLSPSLLVYRLTT	-0.096 ± 1.2
RGINSFLMSFALCWAHWRGV	-0.072 ± 0.37
RGLSNA	0.664 ± 0.48
RGNANIVEDSLFVVIGGRKV	4.25 ± 0.074
RGSKRTVKLNSGVRVKSYDW	0.373 ± 1.4
RGVARWRCGNKICNA	0.078 ± 0.47
RGVHVHRFVLLAMMKFQFGS	inactive
RGVLFVAINW	2.47 ± 0.31
RGYLAWLSGDQA	1.68 ± 0.52
RGYQTSGLT	-0.756 ± 2.4
RHFLFLLWARPTTCSIFMVG	-0.454 ± 0.77
RHLMLVKYVFGSRELGL	0.169 ± 0.25
RHLRVTFNSLSWRKMKAGVV	-0.314 ± 0.86
RHTGPIMLSWDAKGRGK	0.622 ± 0.44
RHYSARQWQIWGFCDLPHSR	0.086 ± 0.66
RICKGIAGKSENCNTLYNSS	inactive
RIIGHLKFIMIRNNVSLCDM	-0.146 ± 0.5
RIKHERLIVFVMNLDINQ	4.3 ± 0.096

Substance	amyloid nucleation score
RILSDDDVARQNGNDDNLYP	3.22 ± 0.092
RINLVSVYDRSNDKVSIPS	0.454 ± 0.55
RIRTIPFAPRNESPRCIGKF	-1.5 ± 0.86
RIVISCRFEYGLGVGSSGVP	0.156 ± 1.6
RIVRRFAGLISSI	inactive
RKASWRWMSSMSNVGWTCPN	4.67 ± 0.12
RKESDNDFSTCVTWQNRHPD	0.529 ± 0.74
RKGSMWFCRCLVRMRHRALP	-0.295 ± 0.76
RKLDASHYMPVSDLEFCCMC	6.752 ± 0.048
RKLFAY	inactive
RKRRVSSLPEMGHSGSEYIG	0.412 ± 0.67
RKWRVCDKND	-0.491 ± 0.86
RLARWPEPLIRCFAS	0.594 ± 0.55
RLAVLEELMVRICIVIRNFW	-0.328 ± 0.69
RLAWPRKSSSCN	0.774 ± 0.45
RLHAVTSLCR	5.42 ± 0.1
RLIIME	inactive
RLLASGFLSTRFR	0.143 ± 0.86
RLLRFGENFDCWKYLNVALE	0.004 ± 0.42
RLTCFRGLGNIYIELINMVN	-0.376 ± 0.23
RLTVSGVTLGSVTHAFCGAP	0.267 ± 0.67
RLTYSSCSGNLWYFRFKSVE	0.415 ± 0.67
RLVEQFRGMLLWY	-0.673 ± 0.64
RLVIRSGTNAGMVGRSWGGC	-0.151 ± 0.3
RLVSMEVCCTARLPCPYLLK	2.09 ± 0.25

Substance	amyloid nucleation score
RLYPL	0.908 ± 0.34
RLYPQYLNFKVCKFGSLDGG	-0.836 ± 0.31
RLYWSCCDRVDTFLCVF	4.43 ± 0.099
RMAHVKHFL	4.52 ± 0.082
RMAWMEGRPGDRMSRYGTSC	inactive
RMDSGIGDRSTGGDRTNGMW	-0.546 ± 0.53
RMERGKNLQMWEGQEVGAEN	-1.19 ± 0.77
RMFEVARSSKRSLFHSILET	0.109 ± 0.26
RMFNQAI	-0.394 ± 0.74
RMGVA	0.644 ± 0.92
RMIKNYSIS	0.89 ± 0.55
RMRRLCVSEGRDLSGECCYM	0.544 ± 0.3
RMSSIKYVMWGHFAIVSTKV	1.99 ± 0.43
RMVLPVSNLFCAFPGTGGGS	-0.577 ± 0.32
RNCNWDYEVNIKWRVRVEFL	inactive
RNGCKFTKLFETVRFKEEGF	-1.03 ± 0.48
RNLLNFFKISDTSTALDLLY	-0.728 ± 0.52
RNPTFFAMCSMCWLSTT	0.852 ± 0.97
RNSMQILASLNNMDQRPLWR	1.51 ± 0.51
RNWREVSYMIQVGW	-0.186 ± 0.29
RPCNEGFWLHNHGRSNSSSS	-0.462 ± 0.52
RPKSEISSNFLVDMGFYREM	0.808 ± 0.88
RPSTLCFTIIRVYKLSRSPT	2.65 ± 0.074
RQEVKAMGRFTATSLGTHSR	0.399 ± 0.47
RQLKVARTGLWLGFTFCIQE	0.24 ± 0.89

Substance	amyloid nucleation score
RQLTSVCYKSVDGE	0.516 ± 0.93
RQVPGIKCKSFTLYFADITL	3.85 ± 0.1
RRCCNVERGSAKVALTV	-0.153 ± 1.3
RRDDVCELLVIP	0.351 ± 0.51
RRIFRYSMNNLNVFVYNRFP	-0.277 ± 0.51
RRLLISPMTYVSDLASIQGC	0.175 ± 0.26
RRPIGMACGDGRVYFWDHTA	-0.036 ± 0.47
RRRCYVVSCCLVALACLACF	0.412 ± 0.8
RRREKHAMDPELRARGQQ	-0.106 ± 0.73
RRSESGKCFDLLSSSLSVIN	-0.786 ± 0.73
RRSSILVNTGYPDLGYVMGD	-1.18 ± 1.3
RRTLSSGVSLYCYPKLGVAR	-0.24 ± 0.53
RSDDKVSRSVGDHCTVGVLR	6.441 ± 0.061
RSEVEFNTPHLLKCVPDMSF	0.587 ± 0.42
RSFVNARSSYDVGFFGWNGC	2.29 ± 0.14
RSFVSEGYFGCWDRDTDYTD	-0.894 ± 1.2
RSLLHCYHNKWMSVRTAFSP	0.642 ± 0.66
RSMGKIMIRENQRSLVMLSH	0.522 ± 0.57
RSMWICLWACYNLMVIRWPG	-0.446 ± 0.54
RSNPMTVMVSCLDEVVS	-0.536 ± 0.49
RSPHVAGYNMKAGSDRSNIT	0.052 ± 0.26
RSQNLGGVFGET	-0.066 ± 0.41
RSQRGRPWEGGLSTSLGVRR	-0.736 ± 1.2
RSQVSSFTYSPSRATPKRRL	0.508 ± 0.5
RSRLLSFGVNGGWYIKMLIS	-0.028 ± 0.61

Substance	amyloid nucleation score
RSRNSPTR	-0.027 ± 0.37
RSSCKTTLEIIGVLRMRVYA	0.769 ± 0.45
RSTGTGTICV	inactive
RSVPLFDHPWNRVTLRFSIL	0.714 ± 0.47
RSWDRYMFGRNRCVDWGR	0.107 ± 0.9
RSYSTCFPLIVLSK	0.303 ± 0.28
RTCDIRSLHPTTEGSETCGR	0.306 ± 0.56
RTGPLSVASGAVPYGYQPWL	-0.203 ± 0.62
RTINYTAMWCYS	0.721 ± 0.41
RTLGDSNGNNVGLQVVPKCL	-0.108 ± 0.31
RTSPN	-0.141 ± 0.37
RTVTWEMQKVDWSLWSCRWL	2.56 ± 0.17
RVILFFRFIAILEDCATVSF	-0.544 ± 0.25
RVLCCRYN	0.19 ± 0.51
RVLLSSVSDM	-0.766 ± 2.4
RVLVDPRSSFVYSTRFDDD	0.2 ± 0.45
RVNTETMITGESGMSIDELM	1.03 ± 0.76
RVRILITYM	1.18 ± 0.17
RVRLVWSSCQGDEGFYGLCP	1.36 ± 0.18
RVRVSLTWQLISLVVMSEYR	0.809 ± 0.64
RVTVTLFYMFNNRGEGKSQA	3.44 ± 0.12
RVVLCDI	0.261 ± 0.75
RVVPGGRLRYVNMVF	1.26 ± 0.67
RVVSCMTSRMLWSMRDPIYY	0.217 ± 0.41
RVVWVVFGWGLIHLGGLLCG	0.146 ± 0.81

Substance	amyloid nucleation score
RVWCKWH	0.027 ± 1.4
RVWMGFDWIEDESRLDSTM	0.21 ± 0.82
RWAVLACFCMGD	0.434 ± 0.81
RWFYSCDVVAFKGH	0.584 ± 0.84
RWIPQNMHQLWKASDGNERM	-0.697 ± 0.41
RWKRVIMSQHQVVYVNSWMV	-0.484 ± 1.9
RWLDYYADNARHVSQTLRRR	-0.575 ± 0.64
RWLGRRMRAGFAYGAFRTGY	0.054 ± 0.8
RWVPYHFV	2.77 ± 0.13
RWYSHFSAMQWGATLCFWGL	2.64 ± 0.11
RYAWVTMVVYACLQLGSASR	0.678 ± 0.21
RYGGRCNTR	0.016 ± 1.7
RYIPARGVNGGYSVVVRHLG	-0.436 ± 0.38
RYKNSIDSESVINRLLWDAT	0.431 ± 0.8
RYKWMYFCFHLIMVGNRMSA	inactive
RYMLHDLIFPVSVVMRVSYE	0.92 ± 0.22
RYMWYLVCS	0.026 ± 0.7
RYNAILAWCSLRKTGVYFLV	1.09 ± 1
RYNTPNGVYICLNA	-1.03 ± 0.39
RYPTGAKKLQMLNDVLMLYR	-0.479 ± 0.3
RYRSMHHFRVHDKHPMLGYA	1.34 ± 0.84
RYRSVVIPRVHAIEVIYAAC	-0.378 ± 0.97
RYTLFCLSVNYWWTFWLDSV	1.61 ± 0.58
RYVCTESESVDLSQMAVIMS	1.13 ± 0.4
RYVPVATKSSTGMSYWDIMV	0.194 ± 0.38

Substance	amyloid nucleation score
RYWSRQRLTDVYVFRLDMSR	-2.07 ± 2.4
SAAGT	0.49 ± 0.66
SAGHLNYNEWLNGCGDRGKC	-0.367 ± 0.53
SARYL	0.496 ± 0.7
SARYLMEFWKVHIKAYIMSF	0.099 ± 0.79
SAVGAIDANIYKSDGYSWG	-0.879 ± 0.58
SCAASGNLYVSSAGGVRGKR	-0.734 ± 0.46
SCACRYSDLVWVINSLRTVA	0.46 ± 0.83
SCHRPVPSRASSEKILGIAC	0.157 ± 1.4
SCILFY	1.75 ± 0.14
SCKPGPIVSLDFVFVVYPWE	0.002 ± 0.9
SCLMY	inactive
SCPTMYSYVFWVRFQSGTAS	1.72 ± 0.13
SCRSGRRRPLPTGGPILATN	-0.015 ± 0.64
SCTYSIFCDNISRTLGH	-0.287 ± 0.26
SCWNSCNKMSF	2.87 ± 0.24
SDALTKMDLITLRDKI	inactive
SDELVQSTASGLFYASMGFK	1.75 ± 0.76
SDFNLDSSGMKRVKSRV	0.817 ± 0.69
